Results taken from US20180371086A1 (Gilead, published 2018).

Assays:
[1] = target: HIV-1 Env of virus MGRM-Acute-B-001 (HIV-1); test: cell-based or functional assay
[2] = target: HIV-1 Env of virus MGRM-G-014 (HIV-1); test: cell-based or functional assay
[3] = target: HIV-1 Env of virus MGRM-C-005 (HIV-1); test: cell-based or functional assay
[4] = target: HIV-1 Env of virus MGRM-Chronic-B-005 (HIV-1); test: cell-based or functional assay
[5] = target: HIV-1 Env of virus MGRM-C-027 (HIV-1); test: cell-based or functional assay
[6] = target: HIV-1 Env of virus MGRM-AG-006 (HIV-1); test: cell-based or functional assay
[7] = target: HIV-1 Env of virus MGRM-G-004 (HIV-1); test: cell-based or functional assay
[8] = target: HIV-1 Env of virus MGRM-G-017 (HIV-1); test: cell-based or functional assay
[9] = target: HIV-1 Env of virus MGRM-Chronic-B-009 (HIV-1); test: cell-based or functional assay
[10] = target: HIV-1 Env of virus MGRM-Chronic-B-020 (HIV-1); test: cell-based or functional assay
[11] = target: HIV-1 Env of virus MGRM-F1-016 (HIV-1); test: cell-based or functional assay
[12] = target: HIV-1 Env of virus MGRM-C-013 (HIV-1); test: cell-based or functional assay
[13] = target: HIV-1 Env of virus MGRM-F1-013 (HIV-1); test: cell-based or functional assay
[14] = target: HIV-1 Env of virus MGRM-Chronic-B-004 (HIV-1); test: cell-based or functional assay
[15] = target: HIV-1 Env of virus MGRM-A-006 (HIV-1); test: cell-based or functional assay
[16] = target: HIV-1 Env of virus MGRM-Acute-B-006 (HIV-1); test: cell-based or functional assay
[17] = target: HIV-1 Env of virus MGRM-F1-018 (HIV-1); test: cell-based or functional assay
[18] = target: HIV-1 Env of virus MGRM-AG-007 (HIV-1); test: cell-based or functional assay
[19] = target: HIV-1 Env of virus MGRM-A-002 (HIV-1); test: cell-based or functional assay
[20] = target: HIV-1 Env of virus MGRM-Chronic-B-006 (HIV-1); test: cell-based or functional assay
[21] = target: HIV-1 Env of virus MGRM-C-026 (HIV-1); test: cell-based or functional assay
[22] = target: HIV-1 Env of virus MGRM-AG-001 (HIV-1); test: cell-based or functional assay
[23] = target: HIV-1 Env of virus MGRM-D-001 (HIV-1); test: cell-based or functional assay
[24] = target: HIV-1 Env of virus MGRM-G-013 (HIV-1); test: cell-based or functional assay
[25] = target: HIV-1 Env of virus MGRM-C-024 (HIV-1); test: cell-based or functional assay
[26] = target: HIV-1 Env of virus MGRM-C-016 (HIV-1); test: cell-based or functional assay
[27] = target: HIV-1 Env of virus MGRM-C-008 (HIV-1); test: cell-based or functional assay
[28] = target: HIV-1 Env of virus MGRM-G-011 (HIV-1); test: cell-based or functional assay
[29] = target: HIV-1 Env of virus MGRM-C-028 (HIV-1); test: cell-based or functional assay
Human FcRn = target: T1, Human FcRn (human, UniProt P55899 24-297; P61769 21-119); test: ELISA, FcRn coated on plate, pH 6.0
T1 construct: also called neonatal Fc receptor
T1 sequence (P55899 24-297 limits assumed, chain 1 of 2): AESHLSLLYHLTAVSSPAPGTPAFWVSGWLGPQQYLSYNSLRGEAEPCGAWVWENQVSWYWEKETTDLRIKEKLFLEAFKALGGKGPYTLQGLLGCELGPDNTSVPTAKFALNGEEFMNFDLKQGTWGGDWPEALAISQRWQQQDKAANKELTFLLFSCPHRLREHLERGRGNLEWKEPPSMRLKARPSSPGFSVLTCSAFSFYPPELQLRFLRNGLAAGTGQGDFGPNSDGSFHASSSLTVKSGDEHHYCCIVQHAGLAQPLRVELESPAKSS
T1 sequence (P61769 21-119 limits assumed, chain 2 of 2): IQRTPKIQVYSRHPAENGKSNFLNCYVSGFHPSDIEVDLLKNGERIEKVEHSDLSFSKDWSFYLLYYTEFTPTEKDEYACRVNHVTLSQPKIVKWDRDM
Protocol: The binding of antibodies to FcRn of various antibody variants at different pHs was determined. A 96-well Maxisorp plate was coated with 100 ul of 5 μg/ml FcRn. The plate was incubated overnight at 4° C., and then blocked with 4% skim milk for 2 hr at room temperature after washing 3 times with 0.05% Tween 20 washing buffer. […] The plate was then washed 3 times and 100 μL of Fab-anti-human Fab-HRP or Goat anti-human IgG-HRP secondary antibody diluted in 4% skimmed milk was added. Plates were then incubated 50 min at room temperature, washed three times, and 100 μL fresh TMB substrate was added. Plates were developed for 3 minutes on bench with gentle shaking. Plate was quenched with 100 μL 1M HCl, shaken briefly, read at A450 on a spectramax m5 plate reader.

[30] = target: gp120 (HT593) expressed on human embryonic kidney (HEK) cells (HIV-1); test: cell-based or functional assay

B1: PGT121.60 hIgG1/hLambda (antibody)
heavy: QMQLQESGPGLVKPSETLSLTCSVSGASISDSYWSWIRRSPGKGLEWIGYVHKSGDTNYNPSLKSRVHLSLDTSKNQVSLSLTGVTAADSGKYYCARTLHGRRIYGIVAFNEWFTYFYMDVWGTGTQVTVSSASTKGPSVFPLAPSSKSTSGGTAALGCLVKDYFPEPVTVSWNSGALTSGVHTFPAVLQSSGLYSLSSVVTVPSSSLGTQTYICNVNHKPSNTKVDKKVEPKSCDKTHTCPPCPAPELLAGPDVFLFPPKPKDTLMISRTPEVTCVVVDVSHEDPEVKFNWYVDGVEVHNAKTKPREEQYNSTYRVVSVLTVLHQDWLNGKEYKCKVSNKALPLPEEKTISKAKGQPREPQVYTLPPSREEMTKNQVSLTCLVKGFYPSDIAVEWESNGQPENNYKTTPPVLDSDGSFFLYSKLTVDKSRWQQGNVFSCSVLHEALHSHYTQKSLSLSPGK
light: not shown
- PGT121.60 IC50 [1]: 0.0313 µg/mL
- PGT121.60 IC50 [2]: 0.0034 µg/mL
- PGT121.60 IC50 [3]: 0.0078 µg/mL
- PGT121.60 IC50 [4]: 0.072 µg/mL
- PGT121.60 IC50 [5]: 0.0038 µg/mL
- PGT121.60 IC50 [6]: 0.0106 µg/mL
- PGT121.60 IC50 [7]: 0.046 µg/mL
- PGT121.60 IC50 [8]: 0.0255 µg/mL
- PGT121.60 IC50 [9]: 0.0112 µg/mL
- PGT121.60 IC50 [10]: 0.0018 µg/mL
- PGT121.60 IC50 [11]: 0.522 µg/mL
- PGT121.60 IC50 [12]: 12.3 µg/mL
- PGT121.60 IC50 [13]: 0.0871 µg/mL
- PGT121.60 IC50 [14]: 0.0013 µg/mL
- PGT121.60 IC50 [15]: 4.05 µg/mL
- PGT121.60 IC50 [16]: 0.0966 µg/mL
- PGT121.60 IC50 [17]: 0.0201 µg/mL
- PGT121.60 IC50 [18]: 0.108 µg/mL
- PGT121.60 IC50 [19]: 0.0047 µg/mL
- PGT121.60 IC50 [20]: 0.002 µg/mL
- PGT121.60 IC50 [21]: 0.0004 µg/mL
- PGT121.60 IC50 [22]: 1.44 µg/mL
- PGT121.60 IC50 [23]: 0.431 µg/mL
- PGT121.60 IC50 [24]: 1.5 µg/mL
- PGT121.60 IC50 [25]: 0.0826 µg/mL
- PGT121.60 IC50 [26]: 0.0137 µg/mL
- PGT121.60 IC50 [27]: 0.0044 µg/mL
- PGT121.60 IC50 [28]: 1.91 µg/mL
- PGT121.60 IC50 [29]: 0.744 µg/mL
- EC50 (Human FcRn): 220 pM
- % ADCC Activity (ADCC reporter cell based assay; sample stressed at 25° C. for 4 weeks, relative to its untreated control) [30]: 65%
